T1: human AXL expressed on the cell surface of tumor cell lines (human, UniProt P30530 26-894)
T1 sequence (looked up): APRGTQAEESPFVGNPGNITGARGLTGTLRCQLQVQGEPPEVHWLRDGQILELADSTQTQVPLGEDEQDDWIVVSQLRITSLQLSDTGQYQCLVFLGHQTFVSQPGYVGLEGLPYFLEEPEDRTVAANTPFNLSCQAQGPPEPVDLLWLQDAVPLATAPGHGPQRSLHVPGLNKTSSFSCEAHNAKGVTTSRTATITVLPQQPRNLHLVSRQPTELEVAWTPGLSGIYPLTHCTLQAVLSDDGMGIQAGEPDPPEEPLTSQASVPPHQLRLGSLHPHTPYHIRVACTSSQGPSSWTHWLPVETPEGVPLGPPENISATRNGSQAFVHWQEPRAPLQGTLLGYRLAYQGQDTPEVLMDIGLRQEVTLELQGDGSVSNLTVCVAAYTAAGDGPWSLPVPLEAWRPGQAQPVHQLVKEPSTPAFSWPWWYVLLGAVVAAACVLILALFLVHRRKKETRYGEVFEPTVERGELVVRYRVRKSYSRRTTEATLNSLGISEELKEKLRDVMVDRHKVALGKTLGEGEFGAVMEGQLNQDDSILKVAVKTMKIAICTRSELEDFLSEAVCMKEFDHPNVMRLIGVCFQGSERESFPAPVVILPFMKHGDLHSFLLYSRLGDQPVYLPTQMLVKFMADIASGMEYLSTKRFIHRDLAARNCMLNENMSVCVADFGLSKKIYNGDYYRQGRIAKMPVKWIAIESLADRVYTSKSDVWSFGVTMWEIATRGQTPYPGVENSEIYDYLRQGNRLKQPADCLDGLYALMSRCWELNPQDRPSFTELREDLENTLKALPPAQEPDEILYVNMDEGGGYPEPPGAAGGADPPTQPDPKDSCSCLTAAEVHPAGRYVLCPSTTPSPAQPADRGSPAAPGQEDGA

T2: recombinant human AXL extracellular domain, C-terminally His8-tagged (rhAXL-ECD) (human, UniProt P30530 26-451)
T2 construct: Made in CHO cells; also called (rh)AXL-ECD His8; human AXL ECD
T2 sequence: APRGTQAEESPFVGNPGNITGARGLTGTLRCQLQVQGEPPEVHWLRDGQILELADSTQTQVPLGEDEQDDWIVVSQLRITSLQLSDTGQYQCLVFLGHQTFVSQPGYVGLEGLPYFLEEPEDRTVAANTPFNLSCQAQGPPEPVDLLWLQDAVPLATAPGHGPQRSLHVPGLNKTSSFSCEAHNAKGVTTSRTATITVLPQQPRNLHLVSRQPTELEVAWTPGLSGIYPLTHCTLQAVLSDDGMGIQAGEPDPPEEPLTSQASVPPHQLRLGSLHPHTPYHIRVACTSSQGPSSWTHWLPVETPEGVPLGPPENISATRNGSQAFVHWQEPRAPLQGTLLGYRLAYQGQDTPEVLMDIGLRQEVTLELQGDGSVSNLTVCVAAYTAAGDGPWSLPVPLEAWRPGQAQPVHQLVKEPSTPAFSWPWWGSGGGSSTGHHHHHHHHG

T3: mouse AXL extracellular domain (Sino cat. 51026-M08H) (mouse, UniProt Q00993 19-445)
T3 construct: extracellular domain; Bought protein; also called mouse AXL ECD
T3 sequence (looked up): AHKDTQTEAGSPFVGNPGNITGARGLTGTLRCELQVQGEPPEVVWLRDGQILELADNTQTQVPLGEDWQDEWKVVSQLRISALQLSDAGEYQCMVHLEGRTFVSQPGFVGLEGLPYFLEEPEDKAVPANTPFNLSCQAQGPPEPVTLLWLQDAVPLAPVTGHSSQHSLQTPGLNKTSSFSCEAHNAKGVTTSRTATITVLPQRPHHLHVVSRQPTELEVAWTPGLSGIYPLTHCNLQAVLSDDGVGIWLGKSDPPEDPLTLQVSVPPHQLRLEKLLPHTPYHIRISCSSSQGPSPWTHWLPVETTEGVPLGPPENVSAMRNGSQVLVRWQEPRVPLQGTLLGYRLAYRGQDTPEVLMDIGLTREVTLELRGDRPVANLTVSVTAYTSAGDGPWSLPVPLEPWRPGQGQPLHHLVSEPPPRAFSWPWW

B1: hFc-F111-5E9-DM1 (antibody, human IgG1, kappa, V domains shown)
VH: QIQLVQSGPELKKPGETVKISCKASGYTFTKYGMNWVKQAPGKGLKWMGWINTYTGEPTYADDFKGRFAFSLETSASTAYLQINNLTTEDMVTYFCAKGGYYSNPIYPMDYWGQGTSVTVSS
VL: DIQMTQTTSSLSASLGDRVTISCRASQDINNYLNWYQQKPDGTVKLLIYYISRLHSGVPSRFSGSGSGTDYSLTISNLELEDVATYFCQQGNTLPFTFGSGTKLEIKR
modifications: DM1 through SMCC linker on lysine residues; sites not given
B2: NRC-sdAb005-Fc (VHH-human IgG1 Fc fusion) (Fc fusion)
chain: QVKLEESGGGLAQAGGSLRLSCAASGSISSINTIGWFRQAPGKQRELVAASDSGANRNYADSVKGRFTISRDNAKNTVYLQMNNLKPEDTAIYYCRAWGTGTISTMYWGQGTQVTVSS
notes: VHH fused N-terminally to human IgG1 Fc; also called NRC-sdAb005-hIgG1; not shown: human IgG1 Fc
B3: NRC-sdAb006-Fc (VHH-human IgG1 Fc fusion) (Fc fusion)
chain: QVKLEESGGGLVQAGASLRLSCVASESIFGFNTMGWYRQAPGNERELVASISNSKRTMYADSVKGRFTISRDNAKNTVNLQMNNLKPEDTAVYYCRAWGIITSATVYWGQGTQVTVSS
notes: VHH fused N-terminally to human IgG1 Fc; also called NRC-sdAb006-hIgG1; not shown: human IgG1 Fc
B4: mIgG2 F155-3C7 (antibody, V domains shown)
VH: QVQLQQPGTELVKPGASVKLSCKASGYIFTNFWINWVKQRPGQGLEWIGNIFPGSNSSNYNEKFKNKATLTVDKSSSTAYMHLSSLTSEDSAVYYCVRDYYGGSPDYWGQGTTLTVSS
VL: DIVMSQSPSSLAVSAGEKVTMSCKSSQSLLNSKTRKNYLAWYQQKPGQSPKLLIYWASTRESGVPARFTGSGSGTDFTLTISSVQAEDLAIYYCKHSYNLWTFGGGTKLEIR
notes: Printed as mIgG2 (mouse IgG2)
B5: mIgG2 F149-4G4 (antibody, V domains shown)
VH: QIQLVQSGPELKKPGETVKISCKTSGYTFTYYGINWVKQAPGKGLEWMGWINTYLGEPTYADDFKGRFAFSLETSASTAYLQINNLRDEDMATYFCTRGTMSYSFDYWGQGTALTVSS
VL: QNVLTQSPAIMSASPGEEVTMTCRASSSVSSSYLHWYQQKSGASPKLWIYSTSKLASGVPARFSGSGSGTSYSLTISSVEAEDAATYYCHQYSGDPLTFGSGTKLEVK
notes: Printed as mIgG2 (mouse IgG2)

Experiments:
[1] = target: T1, human AXL expressed on the cell surface …; assay: cell-based or functional assay
[2] = target: T1, human AXL expressed on the cell surface …; assay: cell-based or functional assay; remark: listed apart in the source
[3] = target: T1, human AXL expressed on the cell surface …; assay: FACS on SKOV3 cells, apparent Kd, human Fc format
Description: (§1) FACS binding assay. Adherent cells were dissociated with non-enzymatic Sigma Cell Dissociation Solution (Cat. No. C5789). Cells suspensions were added to polypropylene, V-bottom 96-well plates and incubated for 2 hours on ice with primary antibodies at concentrations ranging from 100 nM to 0.001 nM or at a single dose of 100 nM (for the non-specific control). After incubation and washes, cells were incubated with fluorescently labeled secondary antibody (Alexa Fluor® 488 anti-human IgG from Jackson Cat. No 709-546-098) for 1 hour on ice, then washed. Cell viability was determined using Fixable viability dye 450 (20 min on ice). Stained cells were fixed in 1% formaldehyde at 4° C. and stored at 4° C. until acquisition which was performed the next day.
(§2) Binding of recombinant chimeric Abs to three cell lines was assessed by FACS as described above. The apparent Bmax and Kd determination is shown below in Table 14.

[4] = target: T1, human AXL expressed on the cell surface …; assay: FACS on MDA-MB-231 luciferase cells, apparent Kd, human Fc format
Description: as §1, §2

[5] = target: T1, human AXL expressed on the cell surface …; assay: FACS on NCI-H292 cells, apparent Kd, human Fc format
Description: as §1, §2

[6] = target: T2, recombinant human AXL extracellular …; assay: ELISA on coated AXL ECD (100 ng/well), VHH-Fc, HRP-protein A
Description: (§3) ELISA. ELISAs against human, cyno and mouse AXL ECDs were conducted by immobilizing 100 ng of each protein in wells of Nunc MaxiSorp microplates overnight. Human AXL (aa 1-451) and cyno AXL (aa 1-449) were produced recombinantly as described in Example 10. Mouse AXL was purchased from Sino (cat. 51026-M08H). The next day, plates were blocked with 5% (w/v) dried milk in PBS. Murine mAbs (either hybridoma- or recombinantly-produced) or VHH-Fcs were diluted in PBS containing 1% BSA and 0.1% Tween-20 and added to wells for 2 hours at room temperature. Wells were washed 5× with PBS containing 0.1% Tween-20, then HRP-labeled protein A (diluted 1:1000 in PBS containing 1% BSA and 0.1% Tween™-20) was added to wells for 1 hour at room temperature. Wells were washed again 5× with PBS/0.1% Tween-20 and developed using TMB substrate. Absorbance was measured at 450 nm. As a positive control for mouse AXL binding, a commercial anti-mouse AXL mAb (clone 175128, R&D Systems MAB8541, rat IgG2A) was used and detected with donkey […] secondary antibody.

[7] = target: T3, mouse AXL extracellular domain (Sino …); assay: ELISA on coated mouse AXL ECD (100 ng/well), VHH-Fc
Description: as §3

[8] = target: T4, recombinant cynomolgus AXL extracellular domain (cynomolgus); assay: SPR, VHH-Fc captured, AXL ECD flowed, single-concentration kinetics (estimate)
T4 construct: range 1-449; also called Cyno AXL; cyno AXL ECD
Description: (§4) For VH Hs and VHH-Fcs, binding to human and cynomolgus AXL ECD was assessed using either a Biacore T200 instrument or a Biacore 3000 instrument. Either human AXL ECD or anti-human Fc antibody was immobilized on a research-grade CM5 series S sensor chip (T200, rhAXL ECD) or a C1 sensor chip (3000, anti-human Fc) using amine coupling in acetate buffer. VHH-Fcs were captured on anti-human Fc surfaces. Either monomeric VHHs (for rhAXL ECD surfaces) or human and cyno AXL ECD (for VHH-Fc surfaces) were flowed over the surfaces at different concentration ranges. Running buffers were HBS-EP (3000) and HBS-EP+(T200). Flow rates were 10-40 ul/min. All binding studies were performed at 25° C. Surfaces were regenerated using 10 mM glycine, pH 1.5.

[9] = target: T2, recombinant human AXL extracellular …; assay: as above
Description: as §4

[10] = target: T3, mouse AXL extracellular domain (Sino …); assay: ELISA on coated mouse AXL ECD (100 ng/well)
Description: as §3

[11] = target: T2, recombinant human AXL extracellular …; assay: ELISA on coated AXL ECD (100 ng/well), HRP-protein A
Description: as §3

[12] = target: T4, recombinant cynomolgus AXL …; assay: SPR Biacore T200, mAb captured on anti-Fc, AXL ECD flowed, multi-cycle kinetics
Description: (§5) Surface plasmon resonance. For murine mAbs, binding to human and cynomolgus AXL ECD was assessed using a Biacore T200 instrument. Briefly, either anti-mouse or anti-human Fc antibody was immobilized on a research-grade CM5 series S sensor chip using amine coupling in acetate buffer. Murine or recombinant chimeric murine-human mAbs (mouse VH/VL; human constant regions) were captured, then recombinant human or cyno AXL ECD was flowed over the surface at different concentration ranges (0.1-500 nM) depending on the antibody. The running buffer was PBS/Tween-20 and the flow rate 100 uL/min. All binding studies were performed at 25° C. Surfaces were regenerated using 10 mM glycine, pH 1.5.

[13] = target: T2, recombinant human AXL extracellular …; assay: as above
Description: as §5

Binder	Kd [3]	Kd [4]	Kd [5]	EC50 [6]	binding result [7]	Kd [8]	koff [8]	kon [8]	Kd [9]	koff [9]	kon [9]	binding result [10]	EC50 [11]	Kd [13]	koff [13]	kon [13]	also measured
B1	–	–	–	–	–	–	–	–	–	–	–	–	–	–	–	–	IC50 (read off the curve), growth inhibition of H292 cells, with added Gas6 (squares) [1]: ~0.04 nM; IC50 (read off the curve), growth inhibition of H292 cells, without added Gas6 (circles) [1]: ~0.04 nM; IC50 of growth inhibition (CellTiterGlo, 5 days) of NCI-H292 cells, -Gas6 [2]: 0.084 nM; IC50 of growth inhibition of NCI-H292 cells, +Gas6 (2 µg/mL) [2]: 0.074 nM
B2	2.03 nM	1.47 nM	1.47 nM	1 nM	no binding	35 nM	0.0046 s⁻¹	130000 M⁻¹ s⁻¹	34 nM	0.0041 s⁻¹	120000 M⁻¹ s⁻¹	–	–	–	–	–	–
B3	13.4 nM	0.832 nM	2.12 nM	1 nM	no binding	26 nM	0.0026 s⁻¹	100000 M⁻¹ s⁻¹	24 nM	0.0021 s⁻¹	89000 M⁻¹ s⁻¹	–	–	–	–	–	–
B4	–	–	–	–	–	–	–	–	–	–	–	no binding	14 nM	3 nM	0.0018 s⁻¹	560000 M⁻¹ s⁻¹	Kd [12]: 25 nM; koff [12]: 0.0073 s⁻¹; kon [12]: 290000 M⁻¹ s⁻¹
B5	–	–	–	–	–	–	–	–	–	–	–	no binding	15 nM	1 nM	0.0012 s⁻¹	750000 M⁻¹ s⁻¹	–

— patent US20240076389A1 (NATIONAL RESEARCH COUNCIL OF CANADA, published 2024)
